Like-named read-outs stand apart in the source and are kept apart here.
B1: DEAF1 (protein, UniProt O75398 1-565, looked up)
Deformed epidermal …: MEDSDSAAKQLGLAEAAAVAAAAAVAAAAAAAAGGEAEEPVLSRDEDSEEDADSEAERETPRVTAVAVMAAEPGHMDMGAEALPGPDEAAAAAAFAEVTTVTVANVGAAADNVFTTSVANAASISGHVLSGRTALQIGDSLNTEKATLIVVHTDGSIVETTGLKGPAAPLTPGPQSPPTPLAPGQEKGGTKYNWDPSVYDSELPVRCRNISGTLYKNRLGSGGRGRCIKQGENWYSPTEFEAMAGRASSKDWKRSIRYAGRPLQCLIQDGILNPHAASCTCAACCDDMTLSGPVRLFVPYKRRKKENELPTTPVKKDSPKNITLLPATAATTFTVTPSGQITTSGALTFDRASTVEATAVISESPAQGDVFAGATVQEASVQPPCRASHPEPHYPGYQDSCQIAPFPEAALPTSHPKIVLTSLPALAVPPPTPTKAAPPALVNGLELSEPRSWLYLEEMVNSLLNTAQQLKTLFEQAKHASTYREAATNQAKIHADAERKEQSCVNCGREAMSECTGCHKVNYCSTFCQRKDWKDHQHICGQSAAVTVQADEVHVAESVMEKVTV
B2: FBLN2 (protein, UniProt P98095 28-1184, looked up)
Fibulin-2: APRQDCTGVECPPLENCIEEALEPGACCATCVQQGCACEGYQYYDCLQGGFVRGRVPAGQSYFVDFGSTECSCPPGGGKISCQFMLCPELPPNCIEAVVVADSCPQCGQVGCVHAGHKYAAGHTVHLPPCRACHCPDAGGELICYQLPGCHGNFSDAEEGDPERHYEDPYSYDQEVAEVEAATALGGEVQAGAVQAGAGGPPAALGGGSQPLSTIQAPPWPAVLPRPTAAAALGPPAPVQAKARRVTEDSEEEEEEEEEREEMAVTEQLAAGGHRGLDGLPTTAPAGPSLPIQEERAEAGARAEAGARPEENLILDAQATSRSTGPEGVTHAPSLGKAALVPTQAVPGSPRDPVKPSPHNILSTSLPDAAWIPPTREVPRKPQVLPHSHVEEDTDPNSVHSIPRSSPEGSTKDLIETCCAAGQQWAIDNDECLEIPESGTEDNVCRTAQRHCCVSYLQEKSCMAGVLGAKEGETCGAEDNDSCGISLYKQCCDCCGLGLRVRAEGQSCESNPNLGYPCNHVMLSCCEGEEPLIVPEVRRPPEPAAAPRRVSEAEMAGREALSLGTEAELPNSLPGDDQDECLLLPGELCQHLCINTVGSYHCACFPGFSLQDDGRTCRPEGHPPQPEAPQEPALKSEFSQVASNTIPLPLPQPNTCKDNGPCKQVCSTVGGSAICSCFPGYAIMADGVSCEDINECVTDLHTCSRGEHCVNTLGSFHCYKALTCEPGYALKDGECEDVDECAMGTHTCQPGFLCQNTKGSFYCQARQRCMDGFLQDPEGNCVDINECTSLSEPCRPGFSCINTVGSYTCQRNPLICARGYHASDDGTKCVDVNECETGVHRCGEGQVCHNLPGSYRCDCKAGFQRDAFGRGCIDVNECWASPGRLCQHTCENTLGSYRCSCASGFLLAADGKRCEDVNECEAQRCSQECANIYGSYQCYCRQGYQLAEDGHTCTDIDECAQGAGILCTFRCLNVPGSYQCACPEQGYTMTANGRSCKDVDECALGTHNCSEAETCHNIQGSFRCLRFECPPNYVQVSKTKCERTTCHDFLECQNSPARITHYQLNFQTGLLVPAHIFRIGPAPAFTGDTIALNIIKGNEEGYFGTRRLNAYTGVVYLQRAVLEPRDFALDVEMKLWRQGSVTTFLAKMHIFFTTFAL
B3: DPF1 (protein, UniProt Q92782 1-387, looked up)
Zinc finger protein neuro-d4: MATVIPGPLSLGEDFYREAIEHCRSYNARLCAERSLRLPFLDSQTGVAQNNCYIWMEKTHRGPGLAPGQIYTYPARCWRKKRRLNILEDPRLRPCEYKIDCEAPLKKEGGLPEGPVLEALLCAETGEKKIELKEEETIMDCQKQQLLEFPHDLEVEDLEDDIPRRKNRAKGKAYGIGGLRKRQDTASLEDRDKPYVCDICGKRYKNRPGLSYHYTHTHLAEEEGEENAERHALPFHRKNNHKQFYKELAWVPEAQRKHTAKKAPDGTVIPNGYCDFCLGGSKKTGCPEDLISCADCGRSGHPSCLQFTVNMTAAVRTYRWQCIECKSCSLCGTSENDDQLLFCDDCDRGYHMYCLSPPMAEPPEGSWSCHLCLRHLKEKASAYITLT
B4: EFEMP2 (protein, UniProt O95967 24-443, looked up)
EGF-containing fibulin-like …: SASPQDSEEPDSYTECTDGYEWDPDSQHCRDVNECLTIPEACKGEMKCINHYGGYLCLPRSAAVINDLHGEGPPPPVPPAQHPNPCPPGYEPDDQDSCVDVDECAQALHDCRPSQDCHNLPGSYQCTCPDGYRKIGPECVDIDECRYRYCQHRCVNLPGSFRCQCEPGFQLGPNNRSCVDVNECDMGAPCEQRCFNSYGTFLCRCHQGYELHRDGFSCSDIDECSYSSYLCQYRCINEPGRFSCHCPQGYQLLATRLCQDIDECESGAHQCSEAQTCVNFHGGYRCVDTNRCVEPYIQVSENRCLCPASNPLCREQPSSIVHRYMTITSERSVPADVFQIQATSVYPGAYNAFQIRAGNSQGDFYIRQINNVSAMLVLARPVTGPREYVLDLEMVTMNSLMSYRASSVLRLTVFVGAYTF
B5: FAM120B (protein, UniProt Q96EK7 1-910, looked up)
Constitutive coactivator of …: MGVRGLQGFVGSTCPHICTVVNFKELAEHHRSKYPGCTPTIVVDAMCCLRYWYTPESWICGGQWREYFSALRDFVKTFTAAGIKLIFFFDGMVEQDKRDEWVKRRLKNNREISRIFHYIKSHKEQPGRNMFFIPSGLAVFTRFALKTLGQETLCSLQEADYEVASYGLQHNCLGILGEDTDYLIYDTCPYFSISELCLESLDTVMLCREKLCESLGLCVADLPLLACLLGNDIIPEGMFESFRYKCLSSYTSVKENFDKKGNIILAVSDHISKVLYLYQGEKKLEEILPLGPNKALFYKGMASYLLPGQKSPWFFQKPKGVITLDKQVISTSSDAESREEVPMCSDAESRQEVPMCTGPESRREVPVYTDSEPRQEVPMCSDPEPRQEVPTCTGPESRREVPMCSDPEPRQEVPMCTGPEARQEVPMYTDSEPRQEVPMYTDSEPRQEVPMYTGSEPRQEVPMYTGPESRQEVPMYTGPESRQEVLIRTDPESRQEIMCTGHESKQEVPICTDPISKQEDSMCTHAEINQKLPVATDFEFKLEALMCTNPEIKQEDPTNVGPEVKQQVTMVSDTEILKVARTHHVQAESYLVYNIMSSGEIECSNTLEDELDQALPSQAFIYRPIRQRVYSLLLEDCQDVTSTCLAVKEWFVYPGNPLRHPDLVRPLQMTIPGGTPSLKILWLNQEPEIQVRRLDTLLACFNLSSSREELQAVESPFQALCCLLIYLFVQVDTLCLEDLHAFIAQALCLQGKSTSQLVNLQPDYINPRAVQLGSLLVRGLTTLVLVNSACGFPWKTSDFMPWNVFDGKLFHQKYLQSEKGYAVEVLLEQNRSRLTKFHNLKAVVCKACMKENRRITGRAHWGSHHAGRWGRQGSSYHRTGSGYSRSSQGQPWRDQGPGSRQYEHDQWRRY
B6: FBLN5 (protein, UniProt Q9UBX5 24-448, looked up)
Fibulin-5: QAQCTNGFDLDRQSGQCLDIDECRTIPEACRGDMMCVNQNGGYLCIPRTNPVYRGPYSNPYSTPYSGPYPAAAPPLSAPNYPTISRPLICRFGYQMDESNQCVDVDECATDSHQCNPTQICINTEGGYTCSCTDGYWLLEGQCLDIDECRYGYCQQLCANVPGSYSCTCNPGFTLNEDGRSCQDVNECATENPCVQTCVNTYGSFICRCDPGYELEEDGVHCSDMDECSFSEFLCQHECVNQPGTYFCSCPPGYILLDDNRSCQDINECEHRNHTCNLQQTCYNLQGGFKCIDPIRCEEPYLRISDNRCMCPAENPGCRDQPFTILYRDMDVVSGRSVPADIFQMQATTRYPGAYYIFQIKSGNEGREFYMRQTGPISATLVMTRPIKGPREIQLDLEMITVNTVINFRGSSVIRLRIYVSQYPF

Key:
[1] = biological target: T1, HCV ORFs (Gal4-DB fusions) (Hepatitis C virus genotype 1b, UniProt Q9WMX2); format: binding, HCV genotype 1b, isolate con1; settings: human protein as prey
T1 construct: expressed in transfected cells; host or cells: Saccharomyces cerevisiae MAV203 (IMAP1) / AH109 (IMAP2)

[2] = system: HCV ORFs (Gal4-DB fusions); format: binding, HCV genotype 1b, isolate con1; settings: human protein listed by gene symbol; the value names the HCV protein it interacts with
[3] = biological target: T2, HCV proteins (Hepatitis C virus genotype 1b, UniProt Q9WMX2); experiment: Validation by Y2H pairwise matrices; format: binding;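 further: yeast two-hybrid pairwise tests of interactions first found in Y2H screens of HCV bait proteins against human cDNA libraries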
T2 construct: expressed in transfected cells

[4] = validation of interaction with HCV protein NS3
[5] = validation of interaction with HCV protein CORE
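Wherever IMAP Y2H IMAP1 (number of IST) is given: yeast two-hybrid screens using HCV genotype 1b proteins fused to Gal4-DB as baits against prey cDNA libraries from human spleen and foetal brain, IMAP1 via transformation and IMAP2 via mating.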
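Wherever Interaction with viral protein is given: yeast two-hybrid screens using HCV genotype 1b proteins fused to Gal4-DB as baits against prey cDNA libraries from human spleen and foetal brain, IMAP1 via transformation and IMAP2 via mating.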

Row | Molecule | IMAP Y2H IMAP1 (number of IST) ([1]; HCV protein NS3 as bait) | Interaction with viral protein [2] | Y2H matrices [3, 4] | IMAP Y2H IMAP1 (number of IST) ([1]; HCV protein CORE as bait) | IMAP Y2H IMAP1 (number of IST) ([1]; HCV protein p7 as bait) | Y2H matrices ([3]; interaction with HCV protein p7) | Y2H matrices [3, 5] | IMAP Y2H IMAP1 (number of IST) ([1]; HCV protein NS2 as bait) | Y2H matrices ([3]; validation of interaction with HCV protein NS2)
1 | B1 | 6 | NS3 | + |  |  |  |  |  | 
2 | B2 | 9 | CORE and NS3 | + | 1 | 1 | + | + |  | 
3 | B3 | 1 | NS3 | + |  |  |  |  |  | 
4 | B4 | 3 | NS3 | + |  |  |  |  |  | 
5 | B5 | 1 | NS3 | + |  |  |  |  |  | 
6 | B6 | 32 | CORE and NS3 and NS2 | + | 1 |  |  | + | 1 | +

Reference: US20110091994A1, “Methods for Screening Compounds for Treating and/or Preventing an Hepatitis C Virus Infection” (priority 2008, published 2011)
